Key:
[1] = target: recombinant human OX40 fused to a His-tag (Acro Biosystems, cat. no. OX0-H5224) (human) (UniProt P43489); test: BLI cross-block; first Ab (competitor): IgG1-CD134-003-HC6LC2-RR
[2] = target: recombinant human OX40 fused to a His-tag (Acro Biosystems, cat. no. OX0-H5224) (human) (UniProt P43489); test: BLI cross-block; first Ab (competitor): IgG1-CD134-SF2
[3] = target: recombinant human OX40 fused to a His-tag (Acro Biosystems, cat. no. OX0-H5224) (human) (UniProt P43489); test: BLI cross-block; first Ab (competitor): IgG1-CD134-ABBV368
[4] = target: recombinant human OX40 fused to a His-tag (Acro Biosystems, cat. no. OX0-H5224) (human) (UniProt P43489); test: BLI cross-block; first Ab (competitor): IgG1-CD134-h3C8
[5] = target: recombinant human OX40 fused to a His-tag (Acro Biosystems, cat. no. OX0-H5224) (human) (UniProt P43489); test: BLI cross-block; first Ab (competitor): IgG1-CD134-49B4-RRE
[6] = target: recombinant human OX40 fused to a His-tag (Acro Biosystems, cat. no. OX0-H5224) (human) (UniProt P43489); test: BLI cross-block; first Ab (competitor): IgG1-CD134-A4453
[7] = target: recombinant human OX40 fused to a His-tag (Acro Biosystems, cat. no. OX0-H5224) (human) (UniProt P43489); test: BLI cross-block; first Ab (competitor): IgG1-CD134-GBR830
[8] = target: recombinant human OX40 fused to a His-tag (Acro Biosystems, cat. no. OX0-H5224) (human) (UniProt P43489); test: BLI cross-block; first Ab (competitor): IgG1-CD134-012
[9] = target: recombinant human OX40 fused to a His-tag (Acro Biosystems, cat. no. OX0-H5224) (human) (UniProt P43489); test: BLI cross-block; first Ab (competitor): IgG1-CD134-IBI101
[10] = target: recombinant human OX40 fused to a His-tag (Acro Biosystems, cat. no. OX0-H5224) (human) (UniProt P43489); test: BLI cross-block; first Ab (competitor): IgG1-CD134-11D4
[11] = target: recombinant human OX40 fused to a His-tag (Acro Biosystems, cat. no. OX0-H5224) (human) (UniProt P43489); test: BLI cross-block; first Ab (competitor): IgG1-CD134-Hu106
[12] = target: recombinant human OX40 fused to a His-tag (Acro Biosystems, cat. no. OX0-H5224) (human) (UniProt P43489); test: BLI cross-block; first Ab (competitor): IgG1-CD134-MEDI0562
[13] = target: recombinant human OX40 fused to a His-tag (Acro Biosystems, cat. no. OX0-H5224) (human) (UniProt P43489); test: BLI cross-block; first Ab (competitor): IgG1-CD134-RG7888
[14] = target: recombinant human OX40 fused to a His-tag (Acro Biosystems, cat. no. OX0-H5224) (human) (UniProt P43489); test: BLI cross-block; first Ab (competitor): IgG1-CD134-INCAGN1949
[15] = target: recombinant human OX40 fused to a His-tag (Acro Biosystems, cat. no. OX0-H5224) (human) (UniProt P43489); test: BLI cross-block; first Ab (competitor): IgG1-CD134-007
[16] = target: recombinant human OX40 fused to a His-tag (Acro Biosystems, cat. no. OX0-H5224) (human) (UniProt P43489); test: BLI cross-block; first Ab (competitor): IgG1-CD134-003

Chain of recombinant human OX40 fused to a His-tag (Acro Biosystems, cat. no. OX0-H5224) (human) (P43489 29-214 limits assumed): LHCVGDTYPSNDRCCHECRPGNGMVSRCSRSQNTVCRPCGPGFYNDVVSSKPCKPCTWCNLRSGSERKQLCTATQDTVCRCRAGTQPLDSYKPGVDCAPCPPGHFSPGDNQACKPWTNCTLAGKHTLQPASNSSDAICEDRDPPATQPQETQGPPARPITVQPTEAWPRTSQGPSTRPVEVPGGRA

Row | Binder | association response [1] [nm] | association response [2] [nm] | association response [3] [nm] | association response [4] [nm] | association response [5] [nm] | association response [6] [nm] | association response [7] [nm] | association response [8] [nm] | association response [9] [nm] | association response [10] [nm] | association response [11] [nm] | association response [12] [nm] | association response [13] [nm] | association response [14] [nm] | association response [15] [nm] | association response [16] [nm]
1 | IgG1-CD134-ABBV368 (antibody, INN chains, looked up, V domains shown, IgG1) VH: EVQLVESGGGLVQPGGSLRLSCAASGFTFSRYGMSWVRQAPGKGLELVATINSNGGRTYYPDSVKGRFTISRDNAKNSLYLQMNSLRAEDTAVYYCAREGITTAYAMDYWGQGTTVTVSS VL: DIVMTQSPDSLAVSLGERATINCKASQSVDYDGDSYMHWYQQKPGQPPKLLIYAASILESGVPDRFSGSGSGTDFTLTISSLQAEDVAVYYCQQSNEDPRTFGGGTKVEIK | 1.68 | 0.04 | -0.04 | -0.03 | 0 | 0.29 | 0.01 | 0.87 | 0.01 | 0.13 | 0 | -0.01 | 0.02 | 0.01 | 0 | 1.27
2 | IgG1-CD134-Hu106 (antibody, from another filing, V domains shown) VH: QVQLVQSGSELKKPGASVKVSCKASGYTFTDYSMHWVRQAPGQGLKWMGWINTETGEPTYADDFKGRFVFSLDTSVSTAYLQISSLKAEDTAVYYCANPYYDYVSYYAMDYWGQGTTVTVSS VL: DIQMTQSPSSLSASVGDRVTITCKASQDVSTAVAWYQQKPGKAPKLLIYSASYLYTGVPSRFSGSGSGTDFTFTISSLQPEDIATYYCQQHYSTPRTFGQGTKLEIK | 1.39 | 0.03 | -0.01 | 0.01 | -0.01 | 0.29 | 0.01 | 0.8 | 0.01 | 0.13 | 0.05 | 0.31 | 0.02 | 0 | 0.05 | 1.06
3 | IgG1-CD134-GBR830 (antibody, INN chains, looked up, V domains shown, IgG1) VH: QVTLKESGPALVKPTQTLTLTCSFSGFSLSTSGMGVGWIRQPPGKALEWIAHIWWDDDKYYNTALKTRLTISKDTSKNQVVLTMTNMDPVDTATYYCARIDWDGFAYWGQGTLVTVSS VL: EIVLTQSPATLSLSPGERATLSCRASSSVSYMHWYQQKPGQAPRPWIYATSNRATGIPARFSGSGSGTDYTLTISSLEPEDFAVYYCQQWSSNPWTFGQGTKVEIK | 1.08 | 0.19 | -0.01 | -0.02 | 0 | 0.28 | 0.01 | 0.84 | 0.02 | 0.13 | 0.02 | 0.33 | 0.61 | 0.01 | 0.07 | 0.97

Other lines, results leading:

Row | association response [1] [nm] | association response [2] [nm] | association response [3] [nm] | association response [4] [nm] | association response [5] [nm] | association response [6] [nm] | association response [7] [nm] | association response [8] [nm] | association response [9] [nm] | association response [10] [nm] | association response [11] [nm] | association response [12] [nm] | association response [13] [nm] | association response [14] [nm] | association response [15] [nm] | association response [16] [nm] | Binder
4 | 1.73 | 0.01 | -0.02 | 0.54 | 0.15 | 0.41 | 0.32 | 0.82 | 0.28 | 0.14 | 0.69 | 0 | 0 | 0 | 1.14 | 1.39 | IgG1-CD134-MEDI0562 (antibody, INN chains, looked up, V domains shown, IgG1) VH: QVQLQESGPGLVKPSQTLSLTCAVYGGSFSSGYWNWIRKHPGKGLEYIGYISYNGITYHNPSLKSRITINRDTSKNQYSLQLNSVTPEDTAVYYCARYKYDYDGGHAMDYWGQGTLVTVSS VL: DIQMTQSPSSLSASVGDRVTITCRASQDISNYLNWYQQKPGKAPKLLIYYTSKLHSGVPSRFSGSGSGTDYTLTISSLQPEDFATYYCQQGSALPWTFGQGTKVEIK
5 | 1.38 | 0.01 | 0.01 | 0.41 | 0.02 | 0.47 | 0.26 | 0.54 | 0.23 | 0.11 | 0.1 | 0.02 | 0.02 | 0.02 | 0.47 | 0.66 | IgG1-CD134-RG7888 (antibody, INN chains, looked up, V domains shown, IgG1) VH: EVQLVQSGAEVKKPGASVKVSCKASGYTFTDSYMSWVRQAPGQGLEWIGDMYPDNGDSSYNQKFRERVTITRDTSTSTAYLELSSLRSEDTAVYYCVLAPRWYFSVWGQGTLVTVSS VL: DIQMTQSPSSLSASVGDRVTITCRASQDISNYLNWYQQKPGKAPKLLIYYTSRLRSGVPSRFSGSGSGTDFTLTISSLQPEDFATYYCQQGHTLPPTFGQGTKVEIK

— patent US20240400703A1
